Assays:
[1] = target: eIF3 complex (detected via eIF3b) (Homo sapiens) (UniProt Q14152+P55884+Q99613+O15371+P60228+O00303+O75821+O15372+Q13347+O75822+Q9UBQ5+Q9Y262+Q7L2H7); test: pulldown; details: RIP-chip co-IP with anti-eIF3b, 4 C
LIN28A = target: T1, LIN28A (UniProt Q9H9Z2); test: pulldown; details: RIP-chip microarray, TALON beads, 4 C
T1 sequence: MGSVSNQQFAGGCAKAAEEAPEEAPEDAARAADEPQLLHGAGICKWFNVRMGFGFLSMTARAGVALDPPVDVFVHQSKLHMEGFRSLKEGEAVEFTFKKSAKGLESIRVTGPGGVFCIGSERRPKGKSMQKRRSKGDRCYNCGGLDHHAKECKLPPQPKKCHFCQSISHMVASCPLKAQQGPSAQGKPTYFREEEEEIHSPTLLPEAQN

“HIV_2014_Siegfried_nucs_1_753_2_Multi (HIV-1 gag IRES)” was tested, and the binding signal (top % (rank 568)) [1] was 6.58.
In the case of “HIV_2014_Siegfried_nucs_1_753_9 (HIV-1 gag IRES)”, the binding signal (top % (rank 17)) [1] is reported as 0.2.
hsa-mir-532 was tested, and the binding signal (Cy5 intensity (rank 10)) (LIN28A) was 7.39.
pre-hsa-mir-940 showed a binding signal (Cy5 intensity (rank 6)) (LIN28A) of 7.5.
